The text below walks through data of patent publication EP0528847B1.

In experiment [1] the target is full-length human γ-interferon receptor, on cells (human) (UniProt P15260). Nature of the experiment: ¹²⁵I-IFN-γ binding to COS7 cells transfected with plasmid T886-5, Expt. 2'.
Experiment [2] has the same target. In words: ¹²⁵I-IFN-γ binding to COS7 cells transfected with plasmid T886-6, Expt. 3'.
The target is the same in experiment [3]. Nature of the experiment: ¹²⁵I-IFN-γ binding to COS7 cells transfected with plasmid T886-6, Expt. 3.
Experiment [4] has the same target. Nature of the experiment: ¹²⁵I-IFN-γ binding to COS7 cells transfected with plasmid T884-5, Expt. 1.
Experiment [5] has the same target. Nature of the experiment: ¹²⁵I-IFN-γ binding to COS7 cells transfected with plasmid T886-5, Expt. 2.
Experiment [6] shares this target. In words: ¹²⁵I-IFN-γ binding to COS7 cells transfected with plasmid T884-5, Expt. 1'.

Chain of UniProt P15260 (P15260 18-489): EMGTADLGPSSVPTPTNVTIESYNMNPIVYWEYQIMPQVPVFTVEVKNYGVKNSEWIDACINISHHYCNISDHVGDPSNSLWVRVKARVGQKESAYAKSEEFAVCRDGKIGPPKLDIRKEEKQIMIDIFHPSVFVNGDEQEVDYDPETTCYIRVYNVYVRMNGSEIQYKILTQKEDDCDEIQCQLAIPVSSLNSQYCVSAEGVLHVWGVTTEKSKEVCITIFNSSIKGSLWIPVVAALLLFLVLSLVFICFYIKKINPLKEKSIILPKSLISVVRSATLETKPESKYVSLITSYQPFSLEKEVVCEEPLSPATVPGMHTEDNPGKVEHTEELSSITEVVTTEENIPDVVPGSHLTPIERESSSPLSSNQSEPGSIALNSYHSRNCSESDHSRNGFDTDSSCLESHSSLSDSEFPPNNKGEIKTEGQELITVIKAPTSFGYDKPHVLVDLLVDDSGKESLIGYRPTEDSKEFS

“human γ-interferon (amino acids 4-137 of the mature protein), produced in E. coli 294 from plasmid pGIF4-137 (from UniProt P01579 4-137) (ligand)”: the Background Binding (1), ¹²⁵I IFN-γ cpm bound at 0.1 µg/ml unlabeled IFN-γ in experiment [1] stood at 2400 cpm; in experiment [2], 2090 cpm; in experiment [3], 2530 cpm; in experiment [4], 1830 cpm; in experiment [5] it was 1980 cpm; in experiment [6], 1560 cpm. The Background Binding (2), ¹²⁵I IFN-γ cpm bound at 10 µg/ml unlabeled IFN-γ in experiment [1] turned out to be 198 cpm; in experiment [2], 69.8 cpm; in experiment [3], 231 cpm; in experiment [4], 130 cpm; in experiment [5], 150 cpm; in experiment [6], 77.8 cpm. For the same substance, the Specific Binding (3) = (1) - (2) in experiment [1] amounted to 2210 cpm; in experiment [2] it was 2020 cpm; in experiment [3], 2300 cpm; in experiment [4], 1700 cpm; in experiment [5], 1830 cpm; in experiment [6], 1480 cpm.
